Columns and labels:
Assay type in all cases: binding
[1] = target: T1, GST-ELAV (HuR) fusion protein (Homo sapiens, UniProt Q15717); assay: RNA gel mobility shift of CD83 RNA with GST-ELAV (HuR); conditions: for HuR binding to sub-fragment domain: FIG. 10
T1 construct: made in house; host or cells: E. coli BL21
Procedure: RNA mobility shift experiments are a very sensitive method for characterizing RNA-protein interactions. For this, the RNA to be examined can be amplified and radioactively labeled with the aid of in vitro transcription from a linear DNA template. The labeling generally occurs with […]. In order to ensure the correct folding of the RNA, this is heated in a water bath to 80° C. and cooled to room temperature. RNA obtained in this manner is then incubated with the desired protein and subsequently analyzed on a native polyacrylamide gel, i.e. under non-denaturing conditions.
In order to obtain radioactively labeled RNA for the RNA mobility shift experiments, approximately 20 μg of this vector were linearized with EcoRI and purified on a 0.8% agarose gel. After elution from the gel, the template was extracted with phenol and ethanol precipitated. The resulting DNA was resuspended at a concentration of […] in 20μl nuclease-free water. Radioactively labeled RNA was generated using a Riboprobe In Vitro Transcription System (Promega, Heidelberg, Germany) according to the instructions of the manufacturer using [α-^32P]-UTP. The transcription products were controlled for size and purity by separating 1 μl of the in vitro transcription reaction on a denaturing RNA agarose gel (1.2%), blotting the gel to a nitrocellulose membrane (Amersham-Pharmacia, Freiburg, Germany) for 8 hours and examining the nitrocellulose filter with the aid of photographic film using RNA size standards.
(§1) RNA mobility shift experiments were then carried out using the radioactively labeled CD83 RNA and the GST-ELAV (HuR) fusion protein as described above. 1 μl of approximately 150-200 ng/ml radioactively labeled CD83 RNA and 1 μl of GST-ELAV (HuR) (protein concentration: 0.3 mg/ml) were used per reaction. Alternatively, GST protein without ELAV sequences was used as a control. The radioactively labeled CD83 RNA was heated to 80° C. in a water bath and cooled to room temperature directly before the reaction. The GST-ELAV (HuR) fusion protein (or GST control protein directly expressed from the vector pGEX-5X-1 was carefully mixed with a binding mixture consisting of 1 μl radioactively labeled CD83 RNA, 1 μl Rnasin® RNAse inhibitor (diluted 5:1 in PBS), 1 μl 10×PBS and 6 μl MS2 RNA or 5S RNA (Roche Diagnostics, Mannheim, Germany) (0.8 μg/μl) and incubated at room temperature for 30 min. 3 μl of 50% glycerin were added to each reaction to ease loading and analysis of the binding between the GST-ELAV (HuR) fusion protein and the CD83 RNA occurred on a 4% or 6% native polyacrylamide gel with a TBE running buffer of pH 8.3.
As a control for the specificity of the interaction between HuR and CD83 mRNA, RNA mobility shifts as described in Example 1 were performed using the GST protein as described above, a GST-L5 fusion protein (Schatz et al. (1998) PNAS USA 95: 1607-1612), and a GST- M9 fusion protein comprising the M9 domain of the heterogeneous nuclear ribonucleoprotein hnRNP A1 (Pollard, V. W. et al. (1996) Cell 86: 985-994).
The resulting vectors were linearized with EcoRI and radioactively labeled RNA was produced and employed in RNA mobility shift assays as described above.

GST protein = target: T2, GST protein (Schistosoma japonicum, UniProt P08515); assay: RNA gel mobility shift of CD83 RNA with GST protein control; conditions: native polyacrylamide gel, FIG. 3
T2 construct: made in house
T2 sequence (P08515 whole entry): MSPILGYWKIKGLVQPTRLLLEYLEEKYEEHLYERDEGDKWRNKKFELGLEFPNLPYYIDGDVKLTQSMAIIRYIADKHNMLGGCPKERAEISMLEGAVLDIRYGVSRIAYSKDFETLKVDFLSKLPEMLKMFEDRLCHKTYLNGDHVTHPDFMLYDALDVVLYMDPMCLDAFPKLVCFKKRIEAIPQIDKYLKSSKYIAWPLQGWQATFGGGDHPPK
Procedure: as §1

GST-ELAV (HuR) [2] = target: T3, GST-ELAV (HuR) (Homo sapiens, UniProt Q15717); assay: RNA gel competition mobility shift with unlabeled CD83 RNA; conditions: increasing amounts of unlabeled RNA, FIG. 5
T3 construct: made in house; host or cells: E. coli BL21
T3 sequence (Q15717 whole entry): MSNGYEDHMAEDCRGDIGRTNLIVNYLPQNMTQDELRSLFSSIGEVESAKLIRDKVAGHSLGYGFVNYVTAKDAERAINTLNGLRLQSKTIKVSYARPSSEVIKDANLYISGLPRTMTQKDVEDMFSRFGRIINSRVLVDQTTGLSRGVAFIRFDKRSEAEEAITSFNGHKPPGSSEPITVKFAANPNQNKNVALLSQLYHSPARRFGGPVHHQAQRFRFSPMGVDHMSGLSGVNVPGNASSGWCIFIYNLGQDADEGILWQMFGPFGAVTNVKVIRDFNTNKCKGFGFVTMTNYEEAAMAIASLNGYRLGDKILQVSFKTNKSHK
Procedure: For this, the binding mixture as described above was produced with increasing amounts of non-radioactive CD83 RNA and the RNA mobility shift experiments were carried out as described above, except that the binding mixture was incubated with the respective protein for 15 min and then the same amount of radioactively labeled CD83 RNA (1 μl) was subsequently added to each reaction and incubation was continued for a further 15 min.

GST-ELAV (HuR) [3] = target: T3, GST-ELAV (HuR); assay: Surface Plasmon Resonance (BIACore X) protein-RNA interaction
From the text: Specific protein-RNA interactions were detected by Surface Plasmon Resonance using the BIACore X optical biosensor (Pharmacia Biosensor AB, Upsala, Sweden).
The RNA used contained nucleotides 466 to 615 of SEQ ID NO:1 having a molecular mass of 48,350 gr/mol.
The GST-fusion proteins of interest (GST alone or GST-ELAV (HuR)) were immobilized onto the surface of a CM5 Chip (Pharmacia Biosensor AB, Upsala, Sweden) by using the BIACore GST Capture Kit (Pharmacia Biosensor AB, Upsala, Sweden), according to the manufacturers instructions, until a change of at least 1,000 resonance units (RU) was detectable.
1 μg of in vitro transcribed RNA (using the T7/SP6 Riboprobe Kit, Promega, Mannheim, Germany) was diluted in a total volume of 80 μl HBS-EP buffer (10 mM HEPES, 150 mM NaCl, 3 mM EDTA, 0.005% (v/v) polysorbate 20) and was allowed to flow over the chip at a flow rate of 50μl/minute. The standard running buffer was HBS-EP buffer. The sensor surface was regenerated between assays by injecting 30 μl of 0.5 M NaCl to remove bound analyte.
Determination of KD values and calculation of binding specifity were performed using BIAEvaluation Software 3.1 (Pharmacia Biosensor AB, Upsala, Sweden).

T1 sequence (Q15717 whole entry, the tested form may be a part): as the sequence (Q15717 whole entry) above

B1: stem-loop-2: CD83 RNA sub-fragment from nucleotide 466 to nucleotide 618 of SEQ ID NO:1, 3-pronged stem-loop structure (nucleic acid, listed as Homo sapiens)
sense: TTAACACTCATCATTTTCACTTGTAAGTTTGCACGGCTACAGAGTATCTTCCCAGATTTTTCTAAAGCTGGCATGGAACGAGCTTTTCTCCCAGTTACCTCCCCAAATAAGCATTTAGGGCTAGTGACTCCTCACAAGACAGAACTGGTATGA
modifications: RNA; CDS (1)..(615)
- HuR binding to sub-fragment domain [1]: can bind

B2: CD83 RNA: in vitro transcribed RNA of nucleotides 1 to 618 of SEQ ID NO:1 (human CD83 coding region) (nucleic acid, listed as Homo sapiens)
sense: ATGTCGCGCGGCCTCCAGCTTCTGCTCCTGAGCTGCGCCTACAGCCTGGCTCCCGCGACGCCGGAGGTGAAGGTGGCTTGCTCCGAAGATGTGGACTTGCCCTGCACCGCCCCCTGGGATCCGCAGGTTCCCTACACGGTCTCCTGGGTCAAGTTATTGGAGGGTGGTGAAGAGAGGATGGAGACACCCCAGGAAGACCACCTCAGGGGACAGCACTATCATCAGAAGGGGCAAAATGGTTCTTTCGACGCCCCCAATGAAAGGCCCTATTCCCTGAAGATCCGAAACACTACCAGCTGCAACTCGGGGACATACAGGTGCACTCTGCAGGACCCGGATGGGCAGAGAAACCTAAGTGGCAAGGTGATCTTGAGAGTGACAGGATGCCCTGCACAGCGTAAAGAAGAGACTTTTAAGAAATACAGAGCGGAGATTGTCCTGCTGCTGGCTCTGGTTATTTTCTACTTAACACTCATCATTTTCACTTGTAAGTTTGCACGGCTACAGAGTATCTTCCCAGATTTTTCTAAAGCTGGCATGGAACGAGCTTTTCTCCCAGTTACCTCCCCAAATAAGCATTTAGGGCTAGTGACTCCTCACAAGACAGAACTGGTATGA
modifications: RNA transcript; CDS (1)..(615)
- mobility shift of the RNA by GST protein control (GST protein): no shift occurred
- specificity of the shift in mobility (GST, GST-L5, GST-M9, GST-ELAV (HuR)) ([1]; FIG. 4): only observed with protein comprising the HuR sequence
- mobility shift of the RNA by GST-ELAV (HuR) ([1]; native polyacrylamide gel, FIG. 3): shifted the CD83 RNA to a higher position in the gel
- region of HuR binding ([1]; sub-fragments nt1-294, nt202-414, nt295-618, FIG. 6): from nucleotide 415 to nucleotide 618
- competition of labeled CD83 RNA binding by unlabeled RNA (GST-ELAV (HuR) [2]): capable of titrating free GST-ELAV (HuR) protein

B3: stem-loop-1: CD83 RNA sub-fragment from nucleotide 295 to nucleotide 465 of SEQ ID NO:1, single stem-loop structure (nucleic acid, listed as Homo sapiens)
sense: AGCTGCAACTCGGGGACATACAGGTGCACTCTGCAGGACCCGGATGGGCAGAGAAACCTAAGTGGCAAGGTGATCTTGAGAGTGACAGGATGCCCTGCACAGCGTAAAGAAGAGACTTTTAAGAAATACAGAGCGGAGATTGTCCTGCTGCTGGCTCTGGTTATTTTCTAC
modifications: RNA; CDS (1)..(615)
- HuR binding to sub-fragment domain [1]: can bind

B4: CD83 from nucleotides 466 to 615 of SEQ ID NO:1: in vitro transcribed RNA containing nucleotides 466 to 615 of SEQ ID NO:1 (nucleic acid, listed as Homo sapiens)
sense: TTAACACTCATCATTTTCACTTGTAAGTTTGCACGGCTACAGAGTATCTTCCCAGATTTTTCTAAAGCTGGCATGGAACGAGCTTTTCTCCCAGTTACCTCCCCAAATAAGCATTTAGGGCTAGTGACTCCTCACAAGACAGAACTGGTA
modifications: RNA transcript; CDS (1)..(615)
- binding of HuR (affinity and specificity in words) (GST-ELAV (HuR) [3]): high affinity and is highly specific

Source: US20020165186A1, “Compounds that affect CD83 expression, pharmaceutical compositions comprising said compounds and methods for identifying said compounds” (priority 2000, published 2002)
